{
  "source": "paper PMC11198818",
  "about": "“Positive charges promote the recognition of proteins by the chaperone SlyD from Escherichia coli” (PLOS ONE, 2024)",
  "binders": {"B1": {"name": "HiPIP precursor (RR-HiPIP) from Allochromatium vinosum (natural protein)", "chain": "MSDKPISKSRRDAVKVMLGTAAAIPMINLVGFGTARASAPANAVAADDATAIALKYNQDATKSERVAAARPGLPPEEQHCANCQFMQADAAGATDEWKGCQLFPGKLINVNGWCASWTLKAG", "modifications": "HiPIP precursor; fully folded, [4Fe-4S] cluster presumed; signal peptide retained"}},
  "assay_in_all_cases": "ITC; VP-ITC (MicroCal), 30°C, 10 mM potassium phosphate buffer pH 7.6 or 7.8; SlyD or its variant 30 uM in the calorimetric cell, HiPIP precursor (RR-HiPIP) injected: 100 uM, 2x 22 injections of 10 uL (Fig 4); 200 uM, 23 injections of 10 uL (Fig 3)",
  "details_in_all_cases": "both partners purified",
  "key": {"[1]": {"target": "T1, SlyD E113A, C-terminally hexahistidine-tagged (E. coli, UniProt P0A9K9 1-196, E113A)", "T1 construct": "FKBP-type peptidyl-prolyl cis-trans isomerase SlyD, E. coli; the tag is fused to the C-terminal domain; not shown: His6, C-terminal, kept", "T1 sequence": "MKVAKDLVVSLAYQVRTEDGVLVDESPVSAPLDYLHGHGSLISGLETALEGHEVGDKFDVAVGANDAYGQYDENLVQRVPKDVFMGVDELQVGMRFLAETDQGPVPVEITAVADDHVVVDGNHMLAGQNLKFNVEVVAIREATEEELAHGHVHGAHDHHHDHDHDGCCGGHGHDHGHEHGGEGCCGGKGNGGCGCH"}, "[2]": {"target": "T2, SlyD from Escherichia coli, C-terminally hexahistidine-tagged, wild type (E. coli, UniProt P0A9K9 1-196)", "T2 construct": "FKBP-type peptidyl-prolyl cis-trans isomerase SlyD, E. coli; the tag is fused to the C-terminal domain; also called WT; wt; not shown: His6, C-terminal, kept", "T2 sequence": "T1 sequence with A113E"}, "[3]": {"target": "T3, SlyD Y68S, C-terminally hexahistidine-tagged (E. coli, UniProt P0A9K9 1-196, Y68S)", "T3 construct": "FKBP-type peptidyl-prolyl cis-trans isomerase SlyD, E. coli; the tag is fused to the C-terminal domain; not shown: His6, C-terminal, kept", "T3 sequence": "T1 sequence with Y68S, A113E"}, "[4]": {"target": "T4, SlyD E73A, C-terminally hexahistidine-tagged (E. coli, UniProt P0A9K9 1-196, E73A)", "T4 construct": "FKBP-type peptidyl-prolyl cis-trans isomerase SlyD, E. coli; the tag is fused to the C-terminal domain; not shown: His6, C-terminal, kept", "T4 sequence": "T1 sequence with E73A, A113E"}, "[5]": {"target": "T5, SlyD E89A, C-terminally hexahistidine-tagged (E. coli, UniProt P0A9K9 1-196, E89A)", "T5 construct": "FKBP-type peptidyl-prolyl cis-trans isomerase SlyD, E. coli; the tag is fused to the C-terminal domain; not shown: His6, C-terminal, kept", "T5 sequence": "T1 sequence with E89A, A113E"}, "[6]": {"target": "T6, SlyD F96G, C-terminally hexahistidine-tagged (E. coli, UniProt P0A9K9 1-196, F96G)", "T6 construct": "FKBP-type peptidyl-prolyl cis-trans isomerase SlyD, E. coli; the tag is fused to the C-terminal domain; not shown: His6, C-terminal, kept", "T6 sequence": "T1 sequence with F96G, A113E"}},
  "note": "Numbering of substitutions follows the chain as printed.",
  "data": [
    {"binder": "B1", "values": [
      {"measurement": "Kd", "setting": "[1]", "value": "490 ± 70", "unit": "nM"},
      {"measurement": "stoichiometry N", "setting": "[1]", "value": "0.616 ± 0.008"},
      {"measurement": "stoichiometry N", "setting": "[2]", "value": "0.71 ± 0.002"},
      {"measurement": "stoichiometry N", "setting": "[3]", "value": "0.462 ± 0.003"},
      {"measurement": "Kd", "setting": "[4]", "value": "320 ± 20", "unit": "nM"},
      {"measurement": "stoichiometry N", "setting": "[4]", "value": "0.616 ± 0.003"},
      {"measurement": "Kd", "setting": "[5]", "value": "380 ± 40", "unit": "nM"},
      {"measurement": "stoichiometry N", "setting": "[5]", "value": "0.404 ± 0.004"},
      {"measurement": "Kd", "setting": "[6]", "value": "5650 ± 300", "unit": "nM"},
      {"measurement": "stoichiometry N", "setting": "[6]", "value": "0.575 ± 0.007"}
    ]}
  ]
}
